Data from patent US10894036B2, “Use of marizomib for the treatment of central nervous system (CNS) cancers” (Celgene International II Sàrl, priority 2016, dated 2021).

Assay: Phase 1/2 MRZ + BEV and MRZ monotherapy in recurrent G4 MG: adverse events, DLT
Conditions: MRZ+BEV
Experimental: The clinical trial was a Phase 1, dose-escalation (3+3 design) followed by dose-expansion at recommended Phase 2 Dose (RP2D).
The drugs were infused on 28-Day Cycles. Tumor response is assessed every other cycle by RANO criteria.
The safety data will be presented in individual listings and summary tables, including frequency tables for adverse events and frequency and shift tables for laboratory variables. The safety population will be all subjects who received at least one dose of either study drug in Phase 1 or MRZ in Phase 2.

bevacizumab [reference compound]
0: Ear Infection: # pts, related to BEV (12 Sep. 2016) | Falls: # pts, related to BEV (12 Sep. 2016) | Fatigue: # pts, related to BEV (12 Sep. 2016) | Fracture of Femur: # pts, related to BEV (12 Sep. 2016) | Hallucination: # pts, related to BEV (12 Sep. 2016) | Hemiparesis: # pts, related to BEV (12 Sep. 2016) | Hyperglycemia: # pts, related to BEV (12 Sep. 2016) | Hypokalemia: # pts, related to BEV (12 Sep. 2016) | Hyponatremia: # pts, related to BEV (12 Sep. 2016) | Hypotension: # pts, related to BEV (12 Sep. 2016) | Infusion Site Pain: # pts, related to BEV (12 Sep. 2016) | Lymphocyte Count Decreased: # pts, related to BEV (12 Sep. 2016) | Muscular Weakness: # pts, related to BEV (12 Sep. 2016) | Nausea: # pts, related to BEV (12 Sep. 2016) | Pyramidal Tract Syndrome: # pts, related to BEV (12 Sep. 2016) | Tumor Metastasis: # pts, related to BEV (12 Sep. 2016) | Vision Blurred: # pts, related to BEV (12 Sep. 2016) | Vomiting: # pts, related to BEV (12 Sep. 2016) | Anaemia: # events related to BEV (17 May 2016) | Aphasia: # events related to BEV (17 May 2016) | Appendicitis Perforated: # events related to BEV (17 May 2016) | Asthenia: # events related to BEV (17 May 2016) | Ataxia: # events related to BEV (17 May 2016) | Confusional State: # events related to BEV (17 May 2016) | Constipation: # events related to BEV (17 May 2016) | Convulsion: # events related to BEV (17 May 2016) | Delusion: # events related to BEV (17 May 2016) | Diarrhoea: # events related to BEV (17 May 2016) | Dizziness: # events related to BEV (17 May 2016) | Dysarthria: # events related to BEV (17 May 2016) | Dysphagia: # events related to BEV (17 May 2016) | Dyspnoea: # events related to BEV (17 May 2016) | Ear Infection: # events related to BEV (17 May 2016) | Fatigue: # events related to BEV (17 May 2016) | Hallucination: # events related to BEV (17 May 2016) | Hemiparesis: # events related to BEV (17 May 2016) | Hyperglycemia: # events related to BEV (17 May 2016) | Hypokalemia: # events related to BEV (17 May 2016) | Hypotension: # events related to BEV (17 May 2016) | Insomnia: # events related to BEV (17 May 2016) | Lymphocyte Count Decreased: # events related to BEV (17 May 2016) | Muscular Weakness: # events related to BEV (17 May 2016) | Nausea: # events related to BEV (17 May 2016) | Pyramidal Tract Syndrome: # events related to BEV (17 May 2016) | Vomiting: # events related to BEV (17 May 2016) | Anaemia: # patients, AE related to labelled agent (BEV, MRZ, Both) (36 pts, as of 12 Sep. 2016) | Anxiety: # patients, AE related to labelled agent (BEV, MRZ, Both) (36 pts, as of 12 Sep. 2016) | Aphasia: # patients, AE related to labelled agent (BEV, MRZ, Both) (36 pts, as of 12 Sep. 2016) | Appendicitis Perforated: # patients, AE related to labelled agent (BEV, MRZ, Both) (36 pts, as of 12 Sep. 2016) | Asthenia: # patients, AE related to labelled agent (BEV, MRZ, Both) (36 pts, as of 12 Sep. 2016) | Ataxia: # patients, AE related to labelled agent (BEV, MRZ, Both) (36 pts, as of 12 Sep. 2016) | Confusional State: # patients, AE related to labelled agent (BEV, MRZ, Both) (36 pts, as of 12 Sep. 2016) | Constipation: # patients, AE related to labelled agent (BEV, MRZ, Both) (36 pts, as of 12 Sep. 2016) | Convulsion: # patients, AE related to labelled agent (BEV, MRZ, Both) (36 pts, as of 12 Sep. 2016) | Delusion: # patients, AE related to labelled agent (BEV, MRZ, Both) (36 pts, as of 12 Sep. 2016) | Depressed Level of Consciousness: # patients, AE related to labelled agent (BEV, MRZ, Both) (36 pts, as of 12 Sep. 2016) | Diarrhoea: # patients, AE related to labelled agent (BEV, MRZ, Both) (36 pts, as of 12 Sep. 2016) | Dizziness: # patients, AE related to labelled agent (BEV, MRZ, Both) (36 pts, as of 12 Sep. 2016) | Dysarthria: # patients, AE related to labelled agent (BEV, MRZ, Both) (36 pts, as of 12 Sep. 2016) | Dysphagia: # patients, AE related to labelled agent (BEV, MRZ, Both) (36 pts, as of 12 Sep. 2016) | Dyspnoea: # patients, AE related to labelled agent (BEV, MRZ, Both) (36 pts, as of 12 Sep. 2016) | Ear Infection: # patients, AE related to labelled agent (BEV, MRZ, Both) (36 pts, as of 12 Sep. 2016) | Falls: # patients, AE related to labelled agent (BEV, MRZ, Both) (36 pts, as of 12 Sep. 2016) | Fatigue: # patients, AE related to labelled agent (BEV, MRZ, Both) (36 pts, as of 12 Sep. 2016) | Fracture of Femur: # patients, AE related to labelled agent (BEV, MRZ, Both) (36 pts, as of 12 Sep. 2016) | Hallucination: # patients, AE related to labelled agent (BEV, MRZ, Both) (36 pts, as of 12 Sep. 2016) | Hemiparesis: # patients, AE related to labelled agent (BEV, MRZ, Both) (36 pts, as of 12 Sep. 2016) | Hyperglycemia: # patients, AE related to labelled agent (BEV, MRZ, Both) (36 pts, as of 12 Sep. 2016) | Hypokalemia: # patients, AE related to labelled agent (BEV, MRZ, Both) (36 pts, as of 12 Sep. 2016) | Hyponatremia: # patients, AE related to labelled agent (BEV, MRZ, Both) (36 pts, as of 12 Sep. 2016) | Hypotension: # patients, AE related to labelled agent (BEV, MRZ, Both) (36 pts, as of 12 Sep. 2016) | Infusion Site Pain: # patients, AE related to labelled agent (BEV, MRZ, Both) (36 pts, as of 12 Sep. 2016) | Lymphocyte Count Decreased: # patients, AE related to labelled agent (BEV, MRZ, Both) (36 pts, as of 12 Sep. 2016) | Muscular Weakness: # patients, AE related to labelled agent (BEV, MRZ, Both) (36 pts, as of 12 Sep. 2016) | Nausea: # patients, AE related to labelled agent (BEV, MRZ, Both) (36 pts, as of 12 Sep. 2016) | Pyramidal Tract Syndrome: # patients, AE related to labelled agent (BEV, MRZ, Both) (36 pts, as of 12 Sep. 2016) | Tumor Metastasis: # patients, AE related to labelled agent (BEV, MRZ, Both) (36 pts, as of 12 Sep. 2016) | Vision Blurred: # patients, AE related to labelled agent (BEV, MRZ, Both) (36 pts, as of 12 Sep. 2016) | Vomiting: # patients, AE related to labelled agent (BEV, MRZ, Both) (36 pts, as of 12 Sep. 2016)
7: Epistaxis: # pts, related to BEV (12 Sep. 2016) | Epistaxis: # patients, AE related to labelled agent (BEV, MRZ, Both) (36 pts, as of 12 Sep. 2016)
1: Headache: # pts, related to BEV (12 Sep. 2016) | Insomnia: # pts, related to BEV (12 Sep. 2016) | Optic Nerve Disorder: # pts, related to BEV (12 Sep. 2016) | Embolism: # events related to BEV (17 May 2016) | Headache: # patients, AE related to labelled agent (BEV, MRZ, Both) (36 pts, as of 12 Sep. 2016) | Insomnia: # patients, AE related to labelled agent (BEV, MRZ, Both) (36 pts, as of 12 Sep. 2016) | Optic Nerve Disorder: # patients, AE related to labelled agent (BEV, MRZ, Both) (36 pts, as of 12 Sep. 2016)
13: Hypertension: # pts, related to BEV (12 Sep. 2016) | Hypertension: # patients, AE related to labelled agent (BEV, MRZ, Both) (36 pts, as of 12 Sep. 2016)
10: Dysphonia: # events related to BEV (17 May 2016) | Dysphonia: # patients, AE related to labelled agent (BEV, MRZ, Both) (36 pts, as of 12 Sep. 2016)
8: Epistaxis: # events related to BEV (17 May 2016)
